From PMC2854372 (The Journal of Cell Biology, 2010)
Blank lines part the entries; values can stand above or below the binder they belong to.

Columns and labels:
Kar1 peptide = target: T1, Kar1 peptide (budding yeast)
T1 peptide: KKRELIESKWHRLLFHDKK

Bbp1-TAP = target: T2, Bbp1-TAP (budding yeast, UniProt Q12365 1-385); experiment: pull-down
T2 sequence (looked up): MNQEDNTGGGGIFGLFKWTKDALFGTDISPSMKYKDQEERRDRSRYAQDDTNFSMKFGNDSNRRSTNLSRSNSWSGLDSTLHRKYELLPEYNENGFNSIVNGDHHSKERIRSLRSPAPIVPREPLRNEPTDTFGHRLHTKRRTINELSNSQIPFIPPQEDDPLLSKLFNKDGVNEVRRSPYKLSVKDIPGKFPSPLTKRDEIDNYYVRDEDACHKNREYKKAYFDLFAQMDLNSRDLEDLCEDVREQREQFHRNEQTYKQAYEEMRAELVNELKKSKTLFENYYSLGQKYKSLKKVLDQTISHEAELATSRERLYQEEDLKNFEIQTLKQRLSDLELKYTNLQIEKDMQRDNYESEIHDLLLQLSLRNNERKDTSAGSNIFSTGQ

fold lower ability to bind than wild-type Cdc31 (Kar1 peptide): ~10 fold
B1: Cdc31-T110D (natural protein, budding yeast, UniProt P06704 1-161, looked up)
chain: MSKNRSSLQSGPLNSELLEEQKQEIYEAFSLFDMNNDGFLDYHELKVAMKALGFELPKREILDLIDEYDSEGRHLMKYDDFYIVMGEKILKRDPLDEIKRAFQLFDDDHDGKISIKNLRRVAKELGETLTDEELRAMIEEFDLDGDGEINENEFIAICTDS

fold binding against GST-Spc29 treated with kinase-dead mps1KD (Bbp1-TAP): 5 fold
B2: GST-Spc29 phosphorylated by 6His-Mps1 (natural protein, budding yeast, UniProt P33419 1-253, looked up)
chain: MDYSNFGNSASKKFQDDTLNRVRKEHEEALKKLREENFSSNTSELGNKKHYRAQERMSSPLHRLSPTGKSDDRKVKSPLDDKLRRQLREGNTRLPPPPFSSYGMPPTNRSNLDRIRRRTSSPVRTDKFASQNVIDDQRLEIKYLERIVYDQGTVIDNLTSRITRLESFILNSISDRGDKNFASLEHSRSFSGFPTNKTYGLQMGGLYENDMPYRRSSDNINKEGAREDRSSQIHIENESTEDILKILSSSFHN
modifications: phosphorylated in vitro by Mps1; sites identified by LC-MS/MS: T18, T159, S187 and T240

binding result (Bbp1-TAP): binds
B3: GST-Spc29, nonphosphorylated (natural protein, budding yeast, UniProt P33419 1-253, looked up)
chain: B2 chain
